This note sets out measurements from publication PMC3326387.

The target in this experiment is ecto-FLRT3 (immobilized for SPR) (UniProt Q8BGT1). In words: SPR.
Sequence of UniProt Q8BGT1 (Q8BGT1 29-528): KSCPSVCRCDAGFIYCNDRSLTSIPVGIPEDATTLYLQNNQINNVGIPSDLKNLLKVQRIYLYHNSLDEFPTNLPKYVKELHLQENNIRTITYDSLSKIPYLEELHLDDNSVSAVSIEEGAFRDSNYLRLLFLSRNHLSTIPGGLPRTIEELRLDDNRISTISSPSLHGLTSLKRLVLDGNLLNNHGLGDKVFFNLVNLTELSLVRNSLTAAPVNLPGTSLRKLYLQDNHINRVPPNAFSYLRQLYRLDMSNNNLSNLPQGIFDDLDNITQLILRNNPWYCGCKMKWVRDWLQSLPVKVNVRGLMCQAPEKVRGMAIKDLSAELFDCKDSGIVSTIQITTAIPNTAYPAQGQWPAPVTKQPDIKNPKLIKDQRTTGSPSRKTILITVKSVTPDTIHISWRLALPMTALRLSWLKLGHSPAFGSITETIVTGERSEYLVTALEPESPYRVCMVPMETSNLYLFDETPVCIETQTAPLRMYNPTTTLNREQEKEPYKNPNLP

“ecto-LPHN3-Fc (from UniProt Q80TS3 20-1537) (Fc fusion)” had a Kd of 14.7 nM.
